Assay results as given in US20160053277A1, “Compositions Having Dicamba Decarboxylase Activity and Methods of Use” (PIONEER HI-BRED INTERNATIONAL, INC., priority 2013, published 2016).

B1: 463 (protein)
chain: MAQGKVALEEHFAIPETLQDAAGFVPGDYWKELQHRLLDIQDTRLKLMDKHEIETMILSLAAPAVQAIPDRRKAIEIARRANDFLAEEVAKRPDRFLAFAALPLQDVDAATEELQRCVNDLGFVGAMVNGFSQEGDGQTPLYYDLPQYRPFWGEVEKLDVPFYLHPRNPLPQDSRIYDGHPWLLGPTWAFAQETAVHALRLMASGLFDEHPRLNIILGHMGEGLPYMMYRIDHRIAWVKAPPDYPAKRRFMDYFLENFHITTSGNFRTQTLIDAILEIGADRILFSTDWPFENIDHAADWFNATSIAEADRVKIGRTNARRLFKLDGR
modifications: Dicamba decarboxylase variant
B2: 473 (protein)
chain: MAQGKVALEEHFAIPETLQDAAGFVPGDYWKELQHRLLDIQDTRLKLMDKHEIETMILSLAAPAVQAIPDRRKAIEIARRANDFLAEEVAKRPDRFLAFAALPLQDPDAATEELQRCVRDLGFVGAMVNGFSQEGDGQTPLYYDLPQYRPFWGEVEKLDVPFYLHPRNPLPQDSRIYDGHPWLLGPTWAFAQETAVHALRLMASGLFDEHPGLNIILGHLGEGLPYMMYRIDHRIAWVKAPPDYPAKRRFMDYFLENFHITTSGNFRTQTLIDAILEIGADRILFSTDWPFENIDHAAAWFNATSIAEADRVKIGRTNARRLFKLDGR
modifications: Dicamba decarboxylase variant
B3: 471 (protein)
chain: MAQGKVALEEHFAIPETLQDAADFVPGDYWKELQHRLLDIQDTRLKLMDKHEIETMILSLAAPAVQAIPDRRKAIEIARRANDFLAEEVAKRPDRFLAFAALPLQDPDAATEELQRCVRDLGFVGAMVNGFSQEGDGQTPLYYDLPQYRPFWGEVEKLDVPFYLHPRNPLPQDSRIYDGHPWLLGPTWAFAQETAVHALRLMASGLFDEHPRLNIILGHLGEGLPYMMYRIDHRIAWVKAPPDYPAKRRFMDYFLENFHITTSGNFRTQTLIDAILEIGADRILFSTDWPFENIDHAADWFNATSIAEADRVKIGRTNARRLFKLDGR
modifications: Dicamba decarboxylase variant
B4: 465 (protein)
chain: MAQGKVALEEHFAIPETLNDAADFVPGDYWKELQHRLLDIQDTRLKLMDKHEIETMILSLAAPAVQAIPDRRKAIEIARRANDFLAEEVAKRPDRFLAFAALPLQDPDAATEELQRCVNDLGFVGAMVNGFSQEGDGQTPLYYDLPQYRPFWGEVEKLDVPFYLHPRNPLPQDSRIYDGHPWLLGPTWAFAQETAVHALRLMASGLFDEHPRLNIILGHMGEGLPYMMYRIDHRIAWVKAPPDYPAKRRFMDYFNENFHITTSGNFRTQTLIDAILEIGADRILFSTDWPFENIDHAADWFNATSIAEADRVKIGRTNARRLFKLDGR
modifications: Dicamba decarboxylase variant
B5: 468 (protein)
chain: MAQGKVALEEHFAIPETLNDAAGFVPGDYWKELQHRLLDIQDTRLKLMDKHEIETMILSLAAPAVQAIPDRVKAIEIARRANDFLAEEVAKRPDRFLAFAALPLQDVDAATEELQRCVNDLGFVGAMVNGFSQEGDGQTPLYYDLPQYRPFWGEVEKLDVPFYLHPRNPLPQDSRIYDGHPWLLGPTWAFAQETAVHALRLMASGLFDEHPRLNIILGHMGEGLPYMMYRIDHRIAWVKAPPDYPAKRRFMDYFLENFHITTSGNFRTQTLIDAILEIGADRILFSTDWPFENIDHAADWFNATSIAEADRVKIGRTNARRLFKLDGR
modifications: Dicamba decarboxylase variant
B6: 466 (protein)
chain: MAQGKVALEEHFAIPETLNDAAGFVPGDYWKELQHRLLDIQDTRLKLMDKHEIETMILSLAAPAVQAIPDRVKAIEIARRANDFLAEEVAKRPDRFLAFAALPLQDPDAATEELQRCVNDLGFVGAMVNGFSQEGDGQTPLYYDLPQYRPFWGEVEKLDVPFYLHPRNPLPQDSRIYDGHPWLLGPTWAFAQETAVHALRLMASGLFDEHPRLNIILGHMGEGLPYMMYRIDHRIAWVKAPPDYPAKRRFMDYFNENFHITTSGNFRTQTLIDAILEIGADRILFSTDWPFENIDHAADWFNATSIAEADRVKIGRTNARRLFKLDGR
modifications: Dicamba decarboxylase variant
B7: 470 (protein)
chain: MAQGKVALEEHFAIPETLQDAAGFVPGDYWKELQHRLLDIQDTRLKLMDKHEIETMILSLAAPAVQAIPDRRKAIEIARRANDFLAEEVAKRPDRFLAFAALPMQDVDAATEELQRCVRDLGFVGAMVNGFSQEGDGQTPLYYDLPQYRPFWGEVEKLDVPFYLHPRNPLPQDSRIYDGHPWLLGPTWAFAQETAVHALRLMASGLFDEHPRLNIILGHLGEGLPYMMYRIDHRIAWVKAPPDYPAKRRFMDYFLENFHITTSGNFRTQTLIDAILEIGADRILFSTDWPFENIDHAADWFNATSIAEADRVKIGRTNARRLFKLDGR
modifications: Dicamba decarboxylase variant
B8: 464 (protein)
chain: MAQGKVALEEHFAIPETLNDAAGFVPSDYWKELQHRLLDIQDTRLKLMDKHEIETMILSLAAPAVQAIPDRVKAIEIARRANDFLAEEVAKRPDRFLAFAALPLQDPDAATEELQRCVNDLGFVGALVNGFSQEGDGQTPLYYDLPQYRPFWGEVEKLDVPFYLHPRNPLPQDSRIYDGHPWLLGPTWAFAQETAVHALRLMASGLFDEHPRLNIILGHMGEGLPYMMYRIDHRIAWVKAPPDYPAKRRFMDYFLENFHITTSGNFRTQTLIDAILEIGADRILFSTDWPFENIDHAADWFNATSIAEADRVKIGRTNARRLFKLDGR
modifications: Dicamba decarboxylase variant
B9: 469 (protein)
chain: MAQGKVALEEHFAIPETLQDAAGFVPGDYWKELQHRLLDIQDTRLKLMDKHEIGTMILSLAAPAVQAIPDRRKAIEIARRANDFLAEEVAKRPDRFLAFAALPLQDPDAATEELQRCVNDLGFVGAMVNGFSQEGDGQTPLYYDLPQYRPFWGEVEKLDVPFYLHPRNPLPQDSRIYDGHPWLLGPTWAFAQETAVHALRLMASGLFDEHPRLNIILGHMGEGLPYMMYRIDHRIAWVKAPPDYPAKRRFMDYFNENFHITTSGNFRTQTLIDAILEIGADRILFSTDWPFENIDHAADWFNATSIAEADRVKIGRTNARRLFKLDGR
modifications: Dicamba decarboxylase variant
B10: 472 (protein)
chain: MAQGKVALEEHFAIPETLNDAAGFVPGDYWKELQHRLLDIQDQRLRLMDKHEIGTMILSLAAPAVQAIPDRRKAIEIARRANDFLAEEVAKRPDRFLAFAALPLQDPDAATEELQRCVNDLGFVGAMVNGFSQEGDGQTPLYYDLPQYRPFWKEVEKLDVPFYLHPRNPLPQDSRIYDGHPWLLGPTWAFAQETAVHALRLMASGLFDEHPGLNIILGHMGEGLPYMMYRIDHRIAWVKAPPDYPAKRRFMDYFLENFHITTSGNFRTQTLIDAILEIGADRILFSTDWPFENIDHAAAWFNATSIAEADRVKIGRTNARRLFKLDGR
modifications: Dicamba decarboxylase variant
B11: 467 (protein)
chain: MAQGKVALEEHFAIPETLDDAAGFVPGDYWKELQHRLLDIQDTRLKLMDKHEIETMILSLAAPAVQAIPDRVKAIEIARRANDFLAEEVAKRPDRFLAFAALPLQDPDAATEELQRCVNDLGFVGAMVNGFSQEGDGQTPLYYDLPQYRPFWGEVEKLDVPFYLHPRNPLPQDSRIYDGHPWLLGPTWAFAQETAVHALRLMASGLFDEHPRLNIILGHMGEGLPYMMYRIDHRIAWVKAPPDYPAKRRFMDYFNENFHITTSGNFRTQTLIDAILEIGADRILFSTDWPFENIDHAADWFNATSIAEADRVKIGRTNARRLFKLDGR
modifications: Dicamba decarboxylase variant

Experiment: Shuffled variant libraries: 14CO2 capturing assay in 384-well format
Conditions: decarboxylation activity (carbon dioxide released) compared with unmutated backbone protein SEQ ID NO 380 (DDEC0301)
In the case of B1, the “Fold Activity” value is reported as 1.6.
For B2, the “Fold Activity” value was 1.9.
In the case of B3, the “Fold Activity” value is reported as 1.3.
With B4 the “Fold Activity” value was 1.6.
With B5 the “Fold Activity” value was 2.1.
With B6 the “Fold Activity” value was 1.8.
In the case of B7, the “Fold Activity” value is reported as 1.8.
For B8, the “Fold Activity” value was 1.0.
For B9, the “Fold Activity” value was 1.8.
For B10, the “Fold Activity” value was 1.4.
In the case of B11, the “Fold Activity” value is reported as 1.7.
